Series [1] relates to NIH3T3 cells. As to the kind of experiment: Luminescence in sandwich background, NIH3T3 cells. Format: cell-based. As for the experimental part:
(§1) The PCR library in the Id-OgLuc-HT7 sandwich background was screened for additional variants with increased luminescence compared to 9B8 opt+K33N in sandwich background. Selected variants were then assayed in HEK293 and NIH3T3 cells. […] 1F7 (F) (SEQ ID NOs: 84 and 85) and 15H1 (F) (SEQ ID NOs: 86 and 87) had at least 1.3 fold-increase in luminescence in E. coli. 1F7 (F) was brighter than 9B8 opt+K33N in the sandwich background in HEK293 and NIH3T3 cells.
(§2) The variants 9B8 opt+K33N+T39T+K43R+Y68D (“V2”; SEQ ID NOs: 92 and 93), 9B8 opt+K33N+L27V+K43R+Y68D (SEQ ID NOs: 339 and 340), 9B8 opt+K33N+L27V+T39T+K43R+S66N (SEQ ID NOs: 341 and 342), and 9B8 opt+K33N+L27V+T39T+K43R+Y68D (“L27V”; SEQ ID NOs: 88 and 89) were subcloned into the Id-OgLuc-HT7 sandwich background as described above and assayed in HEK293 and NIH3T3 cells as described above. The luminescence generated by the sandwiched variants were compared to the luminescence generated by the […] sandwich (SEQ ID NOs: 59 and 60) (Table 38). The L27V sandwich (SEQ ID NOs: 90 and 91) and V2 sandwich (SEQ ID NOs: 94 and 95) had at least 1.3× fold-increase in luminescence in HEK293 and NIH3T3 cells.
(§3) The sandwich and non-sandwich versions of the variants V2, 9B8 opt+K33N+L27V+K43R+Y68D, 9B8 opt+K33N+L27V+T39T+K43R+S66N, and L27V were assayed in HEK293 and NIH3T3 cells as described in Example 37. The luminescence generated by the non-sandwiched variants was compared to the luminescence generated by the sandwiched variants (Table 39).

In series [2] the test system is HEK293 cells. As to the kind of experiment: Luminescence in sandwich background, HEK293 cells. Format: cell-based, human. The protocol:
as §1, §2, §3

Series [3] can be described thus: Luminescence of 9B8 opt+K33N derived variants in E. coli. It is filed as biochemical. As for the experimental part: Luminescence generated from the lysates was measured using the novel PBI-3939 and native coelenterazine as substrates. The relative specificity of the variants for PBI-3939 and native coelenterazine was calculated as described previously.
A new OgLuc library was created using 9B8opt+K33N as a starting template. The random library was created using DIVERSIFY® PCR Random Mutagenesis Kit (ClonTech; Catalog #630703). Condition 5 (as listed in the user manual) was used to generate additional variants, and the average mutation rate was calculated to be 2.6 mutations per gene by compiling sequence data from 83 randomly selected clones. This PCR library was cloned into the pF4Ag-based, non-fusion vector background described previously and the sandwich background, i.e., Id-OgLuc-HT7 (described in Example 45). Variants in the pF4Ag-base non-fusion vector background are designated with (NF). Variants in the sandwich vector background are designated with (F). In order to clone the PCR product into both vectors, an amino acid, i.e., a glycine, was appended to the variant sequence in pF4Ag, generating a new position 170 in the OgLuc variant (“170G”). The 170G is present in the sandwich construct, but in this case is considered part of the linker between OgLuc and HT7. For each library, 4,400 E. coli clones were assayed as described previously with the following exceptions. […] The assay buffer contained 100 mM MES pH 6.0 instead of HEPES, and 35 mM thiourea. The assay volumes were as follows: 10 μL cells, 40 μL, lysis buffer, and 50 μL, assay buffer.
E. coli lysates containing the variants were prepared and analyzed as described previously. Luminescence generated from the lysates was measured using the novel PBI-3939 and native coelenterazine as substrates. The luminescence of the variants was normalized to the luminescence generated by 9B8 opt (Table 12). The relative specificity of the variants for PBI-3939 and native coelenterazine was calculated by dividing the luminescence of the variants using PBI-3939 as a substrate with the luminescence of the variants using native coelenterazine as a substrate (Table 12).

Series [4] concerns HEK293 cells. As to the kind of experiment: Luminescence of OgLuc variants expressed in HEK293 cells. Format: cell-based, human. The protocol: (§4) The PCR library in the pF4Ag-based non-fusion background was screened for additional variants with increased luminescence compared to 9B8 opt+K33N+170G (SEQ ID NOs: 68 and 69). Selected variants were then assayed in HEK293 and NIH3T3 cells. For each cell type, 15,000 cells were plated and grown overnight at 37° C. The next day, the cells were transfected as described in Example 25 with 10 ng pGL4.13 (Promega Corp.) as a transfection control and 100 ng of the OgLuc test DNA. The media was removed, and the cells were lysed with 100 μL of lysis buffer as described in Example 25 except the lysis buffer contained 100 mM MES pH 6.0 instead of HEPES, and luminescence measured using a GLOMAX® Luminometer.
(§5) Based on the above data, further combination variants were designed and generated (see Table 10) in the context of the pF4Ag-based non-fusion vector background without the 170G. The variants were analyzed in E. coli, HEK293 and NIH3T3 cells as described above and compared to 9B8 opt+K33N. The variants were also examined for luminescence with native coelenterazine.
(§6) The brightness of the variants expressed in HEK293 and NIH3T3 cells was measured as described previously. The luminescence of the variants was normalized to the luminescence generated by 9B8 opt (Table 27).

The subject of series [5] is NIH3T3 cells. As to the kind of experiment: Luminescence of OgLuc variants expressed in NIH3T3 cells. Format: cell-based. The protocol: as §4, §5, §6
The nature of series [6]: Enzyme kinetics of OgLuc variants in E. coli lysates. As to conditions: PBI-3939, E. coli lysates. Format: biochemical. The protocol:
Using methods known in the art, enzyme kinetic assays measuring luminescence were performed with the lysates of E. coli containing IV and the IV variants 15C1, 9B8, 9F6, and 9A3. […] Two fold serial dilutions of PBI-3939 in the assay buffer described previously in Example 26 were assayed with the diluted lysates. […] Variants 9B8 and 9F6 had higher Km values compared to IV while Km values for the other variants were unchanged.
Luminescence was measured on a TECAN® INFINITE® F500 luminometer.
The enzyme kinetics values were determined for the OgLuc variants as described previously, except luminescence was measured using a GLOMAX® luminometer. Three replicates were used for each variant.

Series [7] in a line: Thermal stability of OgLuc variants at 60° C. It is filed as physicochemical. Conditions: 60° C., assay buffer MES pH 6.0. The protocol:
Aliquots were removed at different time-points and placed on dry ice to freeze the samples. […] Luminescence was measured on a GLOMAX® luminometer (Promega Corp.).
The thermal stability of the variants at 60° C. was examined as described above, except the assay buffer contained 100 mM MES pH 6.0 instead of HEPES.

The mark [8] stands for this setting: relative specificity for PBI-3939 compared to native coelenterazine.

Two molecules from patent US9951373B2, “Oplophorus-derived luciferases, novel coelenterazine substrates, and methods of use” (Promega Corporation, priority 2010, dated 2018) can be followed below.

Broadly, the Km is the substrate concentration at which the rate is half of its maximum.

B1: L27V, T39T, K43R, Y68D Sand: L27V in Id-OgLuc-HT7 sandwich (SEQ ID NO: 91) (protein)
chain: MLGLSEQSVSISRCAGTRLPALLDEQQVNVLLYDMNGCYSRLKELVPTLPQNRKVSKVEILQHVIDYIRDLQLELNSESEVGTTGGRGLPVRAPLSTLNGEISALAAEAACVPADDRILCRVSLENLYFQASGGGGGAIAMVFTLEDFVGDWRQTAGYNLDQVLEQGGVSSLFQNLGVSVTPIQRIVLSGENGLKIDIHVIIPYEGLSGDQMGQIEKIFKVVYPVDDHHFKVILHYGTLVIDGVTPNMIDYFGRPYEGIAVFDGKKITVTGTLWNGNKIIDERLINPDGSLLFRVTINGVTGWRLCERILAGYLEPTTEDLYFQSDNDGSEIGTGFPFDPHYVEVLGERMHYVDVGPRDGTPVLFLHGNPTSSYVWRNIIPHVAPTHRCIAPDLIGMGKSDKPDLGYFFDDHVRFMDAFIEALGLEEVVLVIHDWGSALGFHWAKRNPERVKGIAFMEFIRPIPTWDEWPEFARETFQAFRTTDVGRKLIIDQNVFIEGTLPMGVVRPLTEVEMDHYREPFLNPVDREPLWRFPNELPIAGEPANIVALVEEYMDWLHQSPVPKLLFWGTPGVLIPPAEAARLAKSLPNCKAVDIGPGLNLLQEDNPDLIGSEIARWLSTLEISG
As for B1, the “Fold over 9B8 opt + K33N sandwich, NIH3T3” value in series [1] (sandwich background) is 1.4. In addition, in series [2] (sandwich background), the “Fold over 9B8 opt + K33N sandwich, HEK293” value came out at 1.7.

B2: L27V, K43R, Y68D: 9B8 opt+K33N with L27V, K43R, Y68D (SEQ ID NO: 340) (protein)
chain: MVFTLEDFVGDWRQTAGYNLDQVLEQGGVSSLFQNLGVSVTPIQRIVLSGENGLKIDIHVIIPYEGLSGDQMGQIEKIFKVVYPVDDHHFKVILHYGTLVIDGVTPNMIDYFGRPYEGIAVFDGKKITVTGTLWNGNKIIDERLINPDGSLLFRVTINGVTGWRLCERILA
Regarding B2, in series [1] (non-sandwich versus sandwich), the “Fold-decrease in luminescence in the presence of sandwich background, NIH 3T3 cells” value is 22. The “fold-increase in relative specificity over 9B8 opt+K33N” value in series [3] (in the three cell types examined) was 5 × fold. In addition, in series [3] (luminescence with PBI-3939 divided by luminescence with native coelenterazine, bacterial lysates), the Fold over coelenterazine turned out to be 110. Besides, in series [3] (luminescence with PBI-3939 normalized to 9B8 opt, bacterial lysates), the “Fold over 9B8” value is 1.3. In addition, in series [3] (setting [8]), the “Fold over Native Coelenterazine, E. coli” value is recorded as 98.3. Further, the “luminescence normalized to 9B8 opt, HEK293” value in series [4] (PBI-3939) is 1.6. For the same molecule, the “Fold over 9B8 opt + K33N, HEK293” value in series [4] (luminescence, PBI-3939) is 0.9. In addition, the “Fold over Native Coelenterazine, HEK293” value in series [4] (setting [8]) was 101. Besides, the “Fold-decrease in luminescence in the presence of sandwich background, HEK 293” value in series [2] (non-sandwich versus sandwich) is listed as 8. The “luminescence normalized to 9B8 opt, NIH3T3” value in series [5] (PBI-3939) is 1.5. Further, the “Fold over 9B8 opt + K33N, NIH3T3” value in series [5] (luminescence, PBI-3939) is on record as 0.8. Moreover, the “Fold over Native Coelenterazine, NIH3T3” value in series [5] (setting [8]) was 98. Further, in series [6], the Km turned out to be 13.7 µM and the Vmax was 130,000,000 RLU/0.5 sec. In series [7], this molecule came in with a 1/2 life hours of 23.2 h.
